Assay results as given in a protein production outcome set (Wang et al. 2014).

Assay: label from the status in PepcDB records

Sequence	protein production
LNHVAEELCAATNESEVFSIITRSASHIISAQRISYCVPNYKDKCFEIRSVFSENEVMKSATVDMENSALQFVLQSGSPQFFENLAVTNFTDHLILSKNGLCSGWSVPVRVKGEIVGLLNAASNVKINERAQQLGVIKMLSGIMGVTLSRVNLQEQLEHQ	failed
MAIGRLGYLVRGAWAGGVMLLAAGSAWAAPNWPLAPYSYYAQQQSLSDVLREFAAGFSLALQQGKGVQGVVNGRFNARTPTEFIERLSGIYGFNWFVHAGTLYVSRTSDVVTRAVDAAGASPSALRQALLQLGILDERFGWGELPAQGVAMVSGPPAYVALVEQAVAALPKGAGNQQVAVFRLKHASVSDRVIRYRDQQVVTPGMATMLRQLILGAGPGNDAALAAVAAPLRENPPVFGDAAADGNAPLAGAAQAAGRRLSEPSVQADTRLNALIVQDIPERMPIYRALIEQLDVPSTLIEIEAMIVDVNTDLVNELGVTWGAQIGTTSLGYGDLGLRPGNGLPVDGAAADLAPGTLGISVSTRLAARLRALESDGQANILSQPSILTADNLGAMIDLSDTFYIRTLGERVATVTPVTVGTSLRVTPRYIAAKGGRQVELAIDIEDGRVLQEYPIDGLPRVRKSSISTLAVVGDEQTLLIGGYNNRRDEEQVEKVPLLGDIPGLGFLFSSKSRAVQRRERLFLIRPRVVAIEGKPVFSPVAGTSQVFMSTGWGGHGSSLSIAPGEGGHTQVRHDARAGRPVRLVPDSLHVEYGEAGEASP	failed
MAESIFRKLRDGGEEGELAPALTIEETVASPFGLDVSGYLLTNLSSSILAGKSSSQGLVLITFSRSPSFYLQLLKQKGIVVSSSSKWIRILDCYTDPLGWIDQSSTSFSEGSSLIKLHKCVSDLKKLFSSIIEAGRVRSLSKGLYEIKSDCFGAELVGTGKTRFCVAIDSKREVIIYLNFESAQISSVFWSLNTDLHQEKVTNALEYISTMKANLEPLCPSSDGQRNALENLFSVHQDFGKGRFHVRFKLRKGRVRVMSEEYHVDQSGINFSPISSVDTVIAATKSLLPKASYLDLLFNYLVQFNLQLSEKERVEKEKVVLPFEHQDDGKSNEIYDGRRSLVDGKIETTPLSSMELQTDVVSSGKGGEIIYFRDSDDEHPDSDEDPDDDLDI	not failed
MHVFGLPAIGALAGTQAYWVSLVDVYAAQARIAATGMYPSGRVKRAFPGCCRGYWGDAGGSVRAGWISAAWPYGRFDRSGRPVGGAQPQVIWCEVGCGMGEHELMIFGNKDLPQRTPERPLVTFAVFAYNQESFIRDAIEGAFAQTYEPLEIILSDDCSDDETFLIMQQMAAAYRGPHKVVVRKNHENLGVLGHVLTVAKMAAGKYMVVAAGDDISFPDRTERQVSFLERESDRVVVVSSHDVIFDENCDLPNQKQDSNLRLRKQWYKNNNSWFHGGTACYRLGVLRELPLPTSRLLYEDMALINIFKAMGYSSGFMEIPTIRRRFHQLNLGMQRPERNPWDEERRILRRIEHAADVMDYAADVIEGEGGKAAKLRVQAAIMRKYAKWPDLNFVDRFLLFFESLKAGYMRKASAKVLLGKDVVLDIRSLWC	failed
MLTRAIKTQLVLLTVLAVIAVVVLGWYFLRIPSLVGIGRYTLYAELPRSGGLYRTANVTYRGITIGKVTGVEPTERGARATMSIDNGYQIPTDASANVHSVSAVGEQFVDLVSTRTSGPYLRHGQTITTTTVPSQIGPALDAANRGLAVLPKDRVASVLHEASEAVGGLGSSLNRLIEATQAIAHDVRGSLEDIDDIIERSAPIIDSQVNSGNEIARWAANLNTLAAQTAQTDPAVRSILANAAPTADQVNATFSDVRESLPQTLANLEVVIDMLKRYHNGVEQALVFLPQSGAIAQSVTTEFPGQAGLGVGGLALNQPPPCLTGFLPASEWRSPADTSTAPLPKGTYCRIPMDASNVVRGARNNPCVDVPGKRAATPRECRSNEAYVPGGTNPWYGDPNQMLSCPAPAARCDQPVKPGQVIPAPSVNNGINPLPADQLPGTPPPVNDPLQRPGSGTVQCNGQQPNPCVYTPSTFPTTIYDVQSGKVVAPDGVVYSVEASTHAGADGWKVMLAPTG	failed
MNATAPGTPPNPPQSTGTLMPLVSFRRHRRIALMVMAVVVVFGAGFAWVKGKAVYSATAVLYVAPHFVNILKESKELDIPAYDQFIEHQALTVPRYDILLESLAKLGDRRYVWQKKKESDRRAAERLQAALEVKPVKDSYLITVTLESTTPDHLDELVNTIVDTYLEKSRESDSFFARNVRLTSLRERRGQIQGEIDAKLARRTEIAQELSVTTFSEQLASPYDKLLIESQNALAMAQRNRLASEAALALFEDRKSGQDAIAAAAFDTIQKDPGLISLKGSLYKRRSELLQQASGLDPRHPLKIQIDREFKEIDEELNRTVAKLTEQVAKSFIDQRKADVKRDRQIEQELSLQLESFRQKASWFAALYNEALSLSDEIERSRKQLDMIDERIEFFELESRAPGFVRVETYARPPELPVKGGRKKLFAVVLVLALALGAATPVGLDMLDQRIRTTGQVAKIIGHRPVAWFVEHHGSPDLKRMSADQLRRLAIAVNREREMHGSRLVSLTSVKPEAGVTDLALDLAAELGVLGVPTVVVEADPLRPDPRYRGGSAQPGLADLLAGSGEVTAAVVPAAGGLPARLGTGTAPGRQLFAYPALRRCLDELKAAYDLVLIDAPPLLLSADAEYLVEIADVTLLLVGAGQVKPGELRRAAGILEKIDPKAVGFVVTRLEVYRGGGYYAKLAEEFALAASHENGQKHTSRRLEG	failed
EIKIGITMSASGPGAALGQPQSKTVAALPKEIGGEKVTYFALDDESDPTKAAQNARKLLSEEKVDVLIGSSLTPVSLPLIDIAAEAKTPLMTMAAAAILVAPMDERRKWVYKVVPNDDIMAEAIGKYIAKTGAKKVGYIGFSDAYGEGYYKVLAAAAPKLGFELTTHEVYARSDASVTGQVLKIIATKPDAVFIASAGTPAVLPQKALRERGFKGAIYQTHGVATEEFIKLGGKDVEGAIFAGEAFSGAEDMPADSPFRKVKARFVDAYKAANGGAAPTIFGVHLWDSMTLVENAIPAALKAAKPGTPEFRAAIRDQIEKSKDLALNNGLSNMTPDNHNGYDERSAFLIEIRDGAFRLKQ	not failed
ECSQDCATCSYRLVRPADINFLACVMECEGKLPSLKIWETCKELLQLSKPELPQDGTSTLRENSKPEESHLLAKRYGGFMKRYGGFMKKMDELYPMEPEE	failed
MIDLRSDTVTKPTEEMRKAMAQAEVGDDVYGEDPTINELERLAAETFGKEAALFVPSGTMGNQVSIMAHTQRGDEVILEADSHIFWYEVGAMAVLSGVMPHPVPGKNGAMDPDDVRKAIRPRNIHFPRTSLIAIENTHNRSGGRVVPLENIKEICTIAKEHGINVHIDGARIFNASIASGVPVKEYAGYADSVMFCLSKGLCAPVGSVVVGDRDFIERARKARKMLGGGMRQAGVLAAAGIIALTKMVDRLKEDHENARFLALKLKEIGYSVNPEDVKTNMVILRTDNLKVNAHGFIEALRNSGVLANAVSDTEIRLVTHKDVSRNDIEEALNIFEKLFRKFS	not failed
MNLFYRCRFFLFNNKVKNRGRGNKVVTNSASAKACTILFNGNNNTVILGESASLRGCLIIMSGDDHVLEIGAHTSIYKSNIAFEDHHCLISIGDYTTIQENGGISAVEPYSKIIIGKRCMFSVDVDIRNTDSHSIIKLDTGERINPGKNIFIDDKVWLGAYVQVLKGVSIGNNSIVGIRSLVTKDIPSHALAVGVPAKVIKTNVDWREERI	failed
MAWGVCDINGSFAGQNPVTTRLSVRRCQWRCVDFAHSKCLRTQNYRVQMRSCRTGVYGSPRGDANEAVPPPHQPKGPLRTMPLETLINAGFVDYLILLIYFVFVLGIGLAARHQVSDSLDFFLSGRSLPGWVTGLAFVSANLGAVEIMGMSANGAQIGIPTVHYFWIGAIPAMVFLGIVMMPFYYGSGVRSVPEFMLKRFGPAAHLVNAISFALAQLLIAGINLYLLGTIVHALLGWPLWVALIVAAMIVLAYISLGGLSAAIYNEVLQFFVIVASLLPLVIIGLHRVGGWSGLKAKITAAAEAHPDVVTPAAQQLHSWPGQALSGFGSPVMSVIGITLGLGFVLSFGYWTTNFVEVQRAMASDSLSSARKTPTIGAFPKMLVPFLTVLPGMLAAVLVPEIARMKAGEKVAGGASGSFVQYNDSVLFLIRNLLPTGLTGVAITGLLAAFMAGMAANISAFNTVFSVDIWQHYVIKDKPDGYYVKVGRIATVIATVVAIGTAFMASGFSNIMDYLQTLFGFFNAPLFATFILGMFWKRSTPHAGWSGLVVGTLSAVTVWVMSLAGVFTLPGQGTAFLAATVGFVADIIVSIVVSLFTEPKPAAELVRLVYSETPKEHLVDPLEKDLPWYRRTVPLGMTVLAITVVLNIIF	failed
MAAPLIPVLTAPTAAGKTALALRLAREYGLEIVAADAFTVYRGLDLGTAKPTPQERASVPHHLLDVVDVTQSYDVAQYAAQAEAAIVDILARGRLPLVVGGTGFYLSALSRGLPLTPPSDPKMRAALEAELQERGLDALLAEIEQANPAEAARMERNPRRVVRALEVYRAAGRFPGEFGYSPPAFQYQVFAFSPPAAEMEQRVQERTAAMLRAGWPQEAQWLAGQVPPEQEPRPTVWQALGYAEALAVAQGRLSLAGAEQAIALATRQYGKRQLTWMRRQLGAEVQSPDAAEAHLRAFLERSGAPSLEHHHHHH	failed
MRGTAAIEGPGSQSMITRRGFLRFIGGSFLTAAALGAYAVGIEPMLLTHVKRYALTPPHWPDGLKLRVVALADIHACRPWMTQERIASLVEDANALQPDLIVLLGDYIAGMPLVTGPVTPSQWASALSGLKAPLGVLSILGNHDWWSDGFAQRAGAGPIIARKALEKVGIPVLENDVVRLEKDGQSVWIAGLADQLALLPARKGDDCKGLDDLDGTLAKVGDTAPIILLAHEPDIFPTVPSRVSLTLSGHTHGGQVRLFGYSPVVPSRFGNRYAYGHVVEKDRNLIVSGGLGFSIMPVRFGVRPEILQIDLG	failed
MDGAQPKTNFFERLIARLAREPDSAEDVLNLLRQAHEQEVFDADTLTRLEKVLDFAELEVRDAMITRSRMNVLKENDSIERITAYVIDTAHSRFPVIGEDKDEVLGILHAKDLLKYMFNPEQFHLKSVLRPAVFVPEGKSLTALLKEFREQRNHMAIVIDEYGGTSGLVTFEDIIEQIVGDIEDEFDEDESADNIHSVSAERWRIHAATEIEDINAFFGTEYGSEEADTIGGLVIQELGHLPVRGEKVLIGGLQFTVARADNRRLHTLMATRVK	failed
MRGLRSESKVLELVVIPADHSIAELLKMKENEPVNKLVRVRYAEGEPLQYHTSYIPWKAAPGLAQEECTGSLFELLRTKYNIEISRGTESIEPILTDETISGHLLTNVGAPAFLSESLTYDKNEEVVEYAQIITRGDRTKFTVEQSYHS	failed
MLREPGAADRAAFVELLASPEVHTYLGGPRPRAELERELPGTPERWPGSFVVDLDGEMIGQVLLRRTREHCCPVAVGKVDLGYLFLPRAWGLGYAAEACAAALDWLDCVLPGEPVVLNTQTANTGSMRLAAKLGFTEVERFRAWDAEQWLGLRPPLT	failed
GLIDESEQRLVDNIFEFEEKKIREIMVPRTDMVCIYESDSEEKILAILKEEGVTRYPVCRKNKDDILGFVHIRDLYNQKINENKIELEEILRDIIYISENLTIDKALERIRKEKLQLAIVVDEYGGTSGVVTIEDILEEIVGEIQ	not failed
